# Measurements from IntAct's records for PubMed 20042240.
# B1: Complement factor H-related protein 4 (Homo sapiens), Q92496-1 (parent)
# chain: MLLLINVILTLWVSCANGQEVKPCDFPEIQHGGLYYKSLRRLYFPAAAGQSYSYYCDQNFVTPSGSYWDYIHCTQDGWSPTVPCLRTCSKSDVEIENGFISESSSIYILNEETQYNCKPGYATAEGNSSGSITCLQNGWSTQPICIKFCDMPVFENSRAKSNGMWFKLHDTLDYECYDGYESSYGNTTDSIVCGEDGWSHLPTCYNSSENCGPPPPISNGDTTSFPQKVYLPWSRVEYQCQSYYELQGSKYVTCSNGDWSEPPRCISMKPCEFPEIQHGHLYYENTRRPYFPVATGQSYSYYCDQNFVTPSGSYWDYIHCTQDGWLPTVPCLRTCSKSDIEIENGFISESSSIYILNKEIQYKCKPGYATADGNSSGSITCLQNGWSAQPICIKFCDMPVFENSRAKSNGMRFKLHDTLDYECYDGYEISYGNTTGSIVCGEDGWSHFPTCYNSSEKCGPPPPISNGDTTSFLLKVYVPQSRVEYQCQSYYELQGSNYVTCSNGEWSEPPRCIHPCIITEENMNKNNIQLKGKSDIKYYAKTGDTIEFMCKLGYNANTSVLSFQAVCREGIVEYPRCE
# partner: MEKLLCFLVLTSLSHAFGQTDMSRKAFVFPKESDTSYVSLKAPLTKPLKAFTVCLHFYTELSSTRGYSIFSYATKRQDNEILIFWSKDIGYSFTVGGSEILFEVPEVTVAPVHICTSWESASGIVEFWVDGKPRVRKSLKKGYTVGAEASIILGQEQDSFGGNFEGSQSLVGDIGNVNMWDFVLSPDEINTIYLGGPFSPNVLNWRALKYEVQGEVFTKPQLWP
# Experiments:
# crp_human CRP, P02741 [1] = variants of: B1; settings: with crp_human CRP
# crp_human CRP, P02741 [2] = variants of: B1; settings: with crp_human CRP; remark: listed apart in the source
variant,measurement,setting,value
MLLLINVILTLWVSCANGQEVKPCDFPEIQHGGLYYKAARRLYFPAAAGQSYSYYCDQNFVTPSGSYWDYIHCTQDGWSPTVPCLRTCSKSDVEIENGFISESSSIYILNEETQYNCKPGYATAEGNSSGSITCLQNGWSTQPICIKFCDMPVFENSRAKSNGMWFKLHDTLDYECYDGYESSYGNTTDSIVCGEDGWSHLPTCYNSSENCGPPPPISNGDTTSFPQKVYLPWSRVEYQCQSYYELQGSKYVTCSNGDWSEPPRCISMKPCEFPEIQHGHLYYENTRRPYFPVATGQSYSYYCDQNFVTPSGSYWDYIHCTQDGWLPTVPCLRTCSKSDIEIENGFISESSSIYILNKEIQYKCKPGYATADGNSSGSITCLQNGWSAQPICIKFCDMPVFENSRAKSNGMRFKLHDTLDYECYDGYEISYGNTTGSIVCGEDGWSHFPTCYNSSEKCGPPPPISNGDTTSFLLKVYVPQSRVEYQCQSYYELQGSNYVTCSNGEWSEPPRCIHPCIITEENMNKNNIQLKGKSDIKYYAKTGDTIEFMCKLGYNANTSVLSFQAVCREGIVEYPRCE [S38A;L39A],effect of a mutation on the interaction,"crp_human CRP, P02741 [1]",disrupting interaction strength
same,effect of a mutation on the interaction,"crp_human CRP, P02741 [2]",decreasing interaction strength
MLLLINVILTLWVSCANGQEVKPCDFPEIQHGGLYYKSARRLYFPAAAGQSYSYYCDQNFVTPSGSYWDYIHCTQDGWSPTVPCLRTCSKSDVEIENGFISESSSIYILNEETQYNCKPGYATAEGNSSGSITCLQNGWSTQPICIKFCDMPVFENSRAKSNGMWFKLHDTLDYECYDGYESSYGNTTDSIVCGEDGWSHLPTCYNSSENCGPPPPISNGDTTSFPQKVYLPWSRVEYQCQSYYELQGSKYVTCSNGDWSEPPRCISMKPCEFPEIQHGHLYYENTRRPYFPVATGQSYSYYCDQNFVTPSGSYWDYIHCTQDGWLPTVPCLRTCSKSDIEIENGFISESSSIYILNKEIQYKCKPGYATADGNSSGSITCLQNGWSAQPICIKFCDMPVFENSRAKSNGMRFKLHDTLDYECYDGYEISYGNTTGSIVCGEDGWSHFPTCYNSSEKCGPPPPISNGDTTSFLLKVYVPQSRVEYQCQSYYELQGSNYVTCSNGEWSEPPRCIHPCIITEENMNKNNIQLKGKSDIKYYAKTGDTIEFMCKLGYNANTSVLSFQAVCREGIVEYPRCE [L39A],effect of a mutation on the interaction,"crp_human CRP, P02741 [1]",decreasing interaction strength
same,effect of a mutation on the interaction,"crp_human CRP, P02741 [2]",with no effect
MLLLINVILTLWVSCANGQEVKPCDFPEIQHGGLYYKSLAALYFPAAAGQSYSYYCDQNFVTPSGSYWDYIHCTQDGWSPTVPCLRTCSKSDVEIENGFISESSSIYILNEETQYNCKPGYATAEGNSSGSITCLQNGWSTQPICIKFCDMPVFENSRAKSNGMWFKLHDTLDYECYDGYESSYGNTTDSIVCGEDGWSHLPTCYNSSENCGPPPPISNGDTTSFPQKVYLPWSRVEYQCQSYYELQGSKYVTCSNGDWSEPPRCISMKPCEFPEIQHGHLYYENTRRPYFPVATGQSYSYYCDQNFVTPSGSYWDYIHCTQDGWLPTVPCLRTCSKSDIEIENGFISESSSIYILNKEIQYKCKPGYATADGNSSGSITCLQNGWSAQPICIKFCDMPVFENSRAKSNGMRFKLHDTLDYECYDGYEISYGNTTGSIVCGEDGWSHFPTCYNSSEKCGPPPPISNGDTTSFLLKVYVPQSRVEYQCQSYYELQGSNYVTCSNGEWSEPPRCIHPCIITEENMNKNNIQLKGKSDIKYYAKTGDTIEFMCKLGYNANTSVLSFQAVCREGIVEYPRCE [R40A;R41A],effect of a mutation on the interaction,"crp_human CRP, P02741 [1]",decreasing interaction strength
same,effect of a mutation on the interaction,"crp_human CRP, P02741 [2]",disrupting interaction strength
